Reference: the supplement of paper PMC10724198
± gives the standard deviation of the averaged measurements.

Legend:
Saccharomyces cerevisiae [1] = assay: protein stability index of tFT-peptide fusion (C-terminal peptide) (PSI (0-1 scale)); higher = more stable (slower turnover); settings: genetic background: wild type; temperature: 30 C
Saccharomyces cerevisiae [2] = assay: as above
Description: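 MPS profiling in S. cerevisiae of the tFT-X12 degron library: putative degron peptides plus stable controls, 12 aa, fused to the C-terminus of a sfGFP-mCherry timer. Cells are FACS-sorted into 8 mCherry/sfGFP bins and deep-sequenced. PSI runs from 0 (unstable) to 1 (stable). Backgrounds are wild type, das1Δ and doa10Δ at 30 °C, and wild type, das1Δ, cdc34-1 and cdc53-1 at 37 °C; 2-3 technical replicates each.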

[3] = genetic background: cdc34-1, temperature: 37 C
[4] = genetic background: cdc53-1, temperature: 37 C
[5] = genetic background: das1 deletion, temperature: 30 C
[6] = genetic background: das1 deletion, temperature: 37 C
[7] = genetic background: doa10 deletion, temperature: 30 C
[8] = genetic background: wild type, temperature: 30 C
[9] = genetic background: wild type, temperature: 37 C
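Note: PSI is a weighted mean of sequencing reads over stability bins, variants kept only with over 10 reads, mCherry proximal and sfGFP distal, peptide attached via GGGS linker.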

Row | Sequence | protein stability index (Saccharomyces cerevisiae [1]) | protein stability index (Saccharomyces cerevisiae [2]; [3]) | protein stability index (Saccharomyces cerevisiae [2]; [4]) | protein stability index (Saccharomyces cerevisiae [2]; [5]) | protein stability index (Saccharomyces cerevisiae [2]; [6]) | protein stability index (Saccharomyces cerevisiae [2]; [7]) | protein stability index (Saccharomyces cerevisiae [2]; [8]) | protein stability index (Saccharomyces cerevisiae [2]; [9])
1 | RARFMLGVLLST | 0.451 ± 0.021 | 0.5525 ± 0.0044 | 0.617 ± 0.033 | 0.487 ± 0.028 | 0.5834 ± 0.0054 | 0.314 ± 0.0056 | 0.352 ± 0.024 | 0.49366 ± 3e-05
2 | RARLRFASLRAF | 0.176 ± 0.01 | 0.546 ± 0.015 | 0.629 ± 0.079 | 0.64 ± 0.13 | 0.644 ± 0.029 | 0.144 ± 0.012 | 0.122 ± 0.008 | 0.217 ± 0.018
3 | RDRHFKIQTCIM | 0.388 ± 0.0046 | 0.662 ± 0.016 | 0.721 ± 0.017 | 0.648 ± 0.02 | 0.717 ± 0.014 | 0.24 ± 0.017 | 0.246 ± 0.039 | 0.515 ± 0.035
4 | RFCLLFVVAGGV | 0.457 ± 0.017 | 0.516 ± 0.0057 | 0.527 ± 0.024 | 0.343 ± 0.019 | 0.546 ± 0.0069 | 0.35 ± 0.035 | 0.371 ± 0.018 | 0.516 ± 0.015
5 | RFFFFFPCLLAP | 0.457 ± 0.048 | 0.349 ± 0.011 | 0.3411 ± 0.001 | 0.417 ± 0.019 | 0.525 ± 0.026 | 0.519 ± 0.025 | 0.418 ± 0.029 | 0.486 ± 0.006
6 | RFYLFLFFVRST | 0.175 ± 0.0048 | 0.302 ± 0.055 | 0.4403 ± 0.0022 | 0.316 ± 0.039 | 0.5488 ± 0.0049 | 0.113 ± 0.0039 | 0.11 ± 0.008 | 0.131 ± 0.012
7 | RGGVCFVVWCGG | 0.429 | 0.46 ± 0.03 | 0.503 ± 0.095 | 0.435 ± 0.0077 | 0.475 ± 0.029 | 0.4305 ± 0.00076 | 0.432 ± 0.0053 | 0.441 ± 0.0061
8 | RGRLKSSYFILF | 0.497 ± 0.074 | 0.7 ± 0.032 | 0.7127 ± 0.0056 | 0.65 ± 0.013 | 0.7509 ± 0.0052 | 0.49 ± 0.0063 | 0.534 ± 0.047 | 0.671 ± 0.017
9 | RGWNGFWVVVVW | 0.307 ± 0.0078 | 0.216 ± 0.015 | 0.305 ± 0.03 | 0.239 ± 0.039 | 0.4155 ± 0.0011 | 0.213 ± 0.0046 | 0.227 ± 0.035 | 0.368 ± 0.032
10 | RIKVTRRIIIYA | 0.299 ± 0.011 | 0.335 ± 0.036 | 0.383 ± 0.07 | 0.239 ± 0.054 | 0.446 ± 0.014 | 0.14 ± 0.0072 | 0.179 ± 0.022 | 0.302 ± 0.018
11 | RILSLQFILCKR | 0.463 ± 0.0058 | 0.607 ± 0.025 | 0.649 ± 0.015 | 0.538 ± 0.024 | 0.64 ± 0.0078 | 0.407 ± 0.013 | 0.414 ± 0.043 | 0.546 ± 0.019
12 | RLARRGGGWGPG | 0.5 ± 0.1 | 0.681 ± 0.012 | 0.7334 ± 0.0049 | 0.657 ± 0.034 | 0.706 ± 0.022 | 0.657 ± 0.034 | 0.67 ± 0.046 | 0.7281 ± 0.00042
13 | RLELTRIMIVAI | 0.207 ± 0.035 | 0.06 ± 0.0059 | 0.08016 ± 0.00021 | 0.182 ± 0.024 | 0.214 ± 0.0094 | 0.109 ± 0.015 | 0.117 ± 0.028 | 0.102 ± 0.02
14 | RLGIRCLYLRFI | 0.306 ± 0.011 | 0.406 ± 0.1 | 0.422 ± 0.052 | 0.482 ± 0.059 | 0.5974 ± 0.0019 | 0.25 ± 0.015 | 0.216 ± 0.035 | 0.363 ± 0.016
15 | RLLCLARMRGLH | 0.396 ± 0.2 | 0.6854 ± 0.0031 | 0.714 ± 0.02 | 0.631 ± 0.068 | 0.728 ± 0.037 | 0.341 ± 0.036 | 0.337 ± 0.022 | 0.579 ± 0.024
16 | RLMVHQHTIPVR | 0.4449 ± 0.0039 | 0.463 ± 0.072 | 0.54 ± 0.016 | 0.307 ± 0.037 | 0.559 ± 0.021 | 0.276 ± 0.035 | 0.316 ± 0.0095 | 0.533 ± 0.0081
17 | RLVIFITRYLIS | 0.2581 ± 0.00054 | 0.337 ± 0.043 | 0.488 ± 0.066 | 0.349 ± 0.044 | 0.562 ± 0.015 | 0.116 ± 0.03 | 0.162 ± 0.016 | 0.275 ± 0.0028
18 | RLVYSQKRWSLF | 0.24 ± 0.006 | 0.673 ± 0.07 | 0.764 ± 0.032 | 0.653 ± 0.014 | 0.76378 ± 0.0006 | 0.167 ± 0.037 | 0.181 ± 0.032 | 0.451 ± 0.027
19 | RPGRWFCFLYCV | 0.185 ± 0.005 | 0.382 ± 0.063 | 0.4311 ± 0.002 | 0.418 ± 0.022 | 0.532 ± 0.011 | 0.163 ± 0.01 | 0.141 ± 0.017 | 0.233 ± 0.0093
